Results: US6906179 (GENERAL HOSPITAL, dated 2005)

B1: LexA-Smad1 (full length Smad1 fused in frame to the LexA DNA binding domain (1-202) in pEG202) (other)
chain: MKALTARQQEVFDLIRDHISQTGMPPTRAEIAQRLGFRSPNAAEEHLKALARKGVIEIVSGASRGIRLLQEEEEGLPLVGRVAAGEPLLAQQHIEGHYQVDPSLFKPNADFLLRVSGMSMKDIGIMDGDLLAVHKTQDVRNGQVVVARIDDEVTVKRLKKQGNKVELLPENSEFKPIVVDLRQQSFTIEGLAVGVIRNGDWLMNVTSLFSFTSPAVKRLLGWKQGDEEEKWAEKAVDALVKKLKKKKGAMEELEKALSCPGQPSNCVTIPRSLDGRLQVSHRKGLPHVIYCRVWRWPDLQSHHELKPLECCEFPFGSKQKEVCINPYHYKRVESPVLPPVLVPRHSEYNPQHSLLAQFRNLGQNEPHMPLNATFPDSFQQPNSHPFPHSPNSSYPNSPGSSSSTYPHSPTSSDPGSPFQMPADTPPPAYLPPEDPMTQDGSQPMDTNMMAPPLPSEINRGDVQAVAYEEPKHWCSIVYYELNNRVGEAFHASSTSVLVDGFTDPSNNKNRFCLGLLSNVNRNSTIENTRRHIGKGVHLYYVGGEVYAECLSDSSIFVQSRNCNYHHGFHPTTVCKIPSGCSLKIFNNQEFAQLLAQSVNHGFETVYELTKMCTIRMSFVKGWGAEYHRQDVTSTPCWIEIHLHGPLQWLDKVLTQMGSPHNPISSVS
notes: also called Smad1pEG202; full length Smad1 bait
B9: Smad3N (aa 1-144) (other, UniProt P84022 1-144, looked up)
chain: MSSILPFTPPIVKRLLGWKKGEQNGQEEKWCEKAVKSLVKKLKKTGQLDELEKAITTQNVNTKCITIPRSLDGRLQVSHRKGLPHVIYCRLWRWPDLHSHHELRAMELCEFAFNMKKDEVCVNPYHYQRVETPVLPPVLVPRHT
notes: range 1-144; also called N-terminal MH1 domain of Smad3

Legend:
[1] = molecular target: T1, Uba 80 (ubiquitin fusion protein), clones S1+36 and S1+38 (human, UniProt P62979 1-156); assay: yeast two-hybrid screen, LexA-Smad1 bait
Description: (§1) From the pooled stock of the transformants, ten million cells are screened on U^-H^-W^-L^- galactose plates containing X-gal. Only those that form blue colonies are picked as candidate positives. […] Methods of sequencing employ such enzymes as the Klenow fragment of DNA polymerase I, Sequenase® (US Biochemical Corp, Cleveland, Ohio), Taq polymerase (Perkin Elmer, Norwalk, Conn.), thermostable T7 polymerase (Amersham, Chicago, Ill.), or combinations of recombinant polymerases and proofreading exonucleases such as the ELONGASE Amplification System (Gibco BRL, Gaithersburg, Md.). Preferably, the process is automated with machines such as the Hamilton Micro Lab 2200 (Hamilton, Reno Nev.), Peltier Thermal Cycler (PTC200; MJ Research, Watertown, Mass.) and the ABI 377 DNA sequencers (Perkin Elmer). […] The transformants are first streaked onto a master plate, then replicated onto two testing plates: U^-H^-W^- glucose plates with X-gal; U^-H^-W^- HW galactose/raffinose plates with X-gal.

[2] = molecular target: B1; assay: yeast two-hybrid; list of Smad1 interactors
Description: as §1

Smad3N (aa 1-144) = molecular target: B9; assay: co-immunoprecipitation, transfected cells
[3] = molecular target: T2, p115HEF1 (full length HEF1, 115 kD form) (human, UniProt Q14511 1-834, form derived from differential phosphorylation; sites not given); assay: co-immunoprecipitation, transfected 293 cells
T2 construct: Transfected into 293 cells; tag not described
T2 sequence (looked up): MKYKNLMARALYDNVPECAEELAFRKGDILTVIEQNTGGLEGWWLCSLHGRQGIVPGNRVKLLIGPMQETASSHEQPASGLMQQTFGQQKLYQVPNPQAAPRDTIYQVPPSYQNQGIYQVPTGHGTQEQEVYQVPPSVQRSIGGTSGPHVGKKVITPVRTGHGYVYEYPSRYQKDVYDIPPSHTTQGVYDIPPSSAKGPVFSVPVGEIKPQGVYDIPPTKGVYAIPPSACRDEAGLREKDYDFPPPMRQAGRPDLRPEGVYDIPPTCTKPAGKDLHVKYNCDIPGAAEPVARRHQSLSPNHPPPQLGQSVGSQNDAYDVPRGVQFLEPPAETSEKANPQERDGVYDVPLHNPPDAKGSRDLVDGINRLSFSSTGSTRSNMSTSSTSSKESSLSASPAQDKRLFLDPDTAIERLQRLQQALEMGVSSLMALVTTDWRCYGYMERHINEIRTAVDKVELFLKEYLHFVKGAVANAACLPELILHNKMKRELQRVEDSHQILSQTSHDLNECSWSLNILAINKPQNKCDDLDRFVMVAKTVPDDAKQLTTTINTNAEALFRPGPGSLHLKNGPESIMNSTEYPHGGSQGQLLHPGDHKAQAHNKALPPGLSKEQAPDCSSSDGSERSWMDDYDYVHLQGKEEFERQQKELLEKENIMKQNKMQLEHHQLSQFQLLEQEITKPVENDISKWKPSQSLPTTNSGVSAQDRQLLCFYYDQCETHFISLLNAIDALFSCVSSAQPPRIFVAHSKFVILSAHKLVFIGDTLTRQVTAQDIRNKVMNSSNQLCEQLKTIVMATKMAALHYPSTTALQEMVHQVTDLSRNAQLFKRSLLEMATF

[4] = molecular target: T3, p105HEF1 (full length HEF1, 105 kD form) (human, UniProt Q14511 1-834, form derived from differential phosphorylation; sites not given); assay: co-immunoprecipitation, transfected 293 cells
T3 construct: Transfected into 293 cells; tag not described
T3 sequence (looked up): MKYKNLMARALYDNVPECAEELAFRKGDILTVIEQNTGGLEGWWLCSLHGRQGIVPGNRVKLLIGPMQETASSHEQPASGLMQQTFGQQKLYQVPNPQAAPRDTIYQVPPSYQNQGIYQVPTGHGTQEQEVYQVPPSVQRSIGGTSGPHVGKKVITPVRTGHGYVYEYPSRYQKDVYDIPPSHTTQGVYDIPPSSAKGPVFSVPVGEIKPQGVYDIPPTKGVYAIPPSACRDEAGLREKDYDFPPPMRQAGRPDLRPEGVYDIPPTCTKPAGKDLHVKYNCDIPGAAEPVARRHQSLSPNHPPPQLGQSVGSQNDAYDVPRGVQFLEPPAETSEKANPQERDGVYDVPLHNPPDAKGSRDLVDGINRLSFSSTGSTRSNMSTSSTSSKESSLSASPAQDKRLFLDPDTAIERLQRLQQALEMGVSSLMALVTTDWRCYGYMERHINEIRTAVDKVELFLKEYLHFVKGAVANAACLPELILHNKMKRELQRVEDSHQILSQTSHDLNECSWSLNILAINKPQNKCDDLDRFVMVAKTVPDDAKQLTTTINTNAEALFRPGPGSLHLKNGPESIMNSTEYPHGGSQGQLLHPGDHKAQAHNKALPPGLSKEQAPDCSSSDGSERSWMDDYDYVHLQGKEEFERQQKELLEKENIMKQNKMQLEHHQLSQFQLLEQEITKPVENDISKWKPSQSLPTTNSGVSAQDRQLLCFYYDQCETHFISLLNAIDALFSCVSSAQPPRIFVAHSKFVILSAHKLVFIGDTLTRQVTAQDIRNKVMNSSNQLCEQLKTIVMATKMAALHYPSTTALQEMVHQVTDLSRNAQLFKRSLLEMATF

[5] = molecular target: B1; assay: yeast two-hybrid (data not shown)
HsN3 = molecular target: T4, HsN3 (human, UniProt P28070 1-264, limits assumed); assay: list of HsN3 interactors; method not detailed
T4 construct: also called β subunit of 20S proteasome; untagged HsN3 protein
T4 sequence (P28070 whole entry): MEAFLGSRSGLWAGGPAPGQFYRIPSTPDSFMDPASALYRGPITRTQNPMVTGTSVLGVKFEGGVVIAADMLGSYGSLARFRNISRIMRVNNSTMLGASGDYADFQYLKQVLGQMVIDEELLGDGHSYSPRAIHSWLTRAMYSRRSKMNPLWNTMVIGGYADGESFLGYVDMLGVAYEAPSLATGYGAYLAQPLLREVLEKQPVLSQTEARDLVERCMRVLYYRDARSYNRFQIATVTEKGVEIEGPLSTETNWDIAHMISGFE

[6] = molecular target: T1, Uba 80 (ubiquitin fusion protein), …; assay: list of S1+12 interactors; method not detailed
[7] = molecular target: the molecule itself; assay: list of S1+12 interactors; method not detailed
HEF1 M2 (aa 651-834) = molecular target: T5, HEF1 M2 (aa 651-834) (human, UniProt Q14511 651-834); assay: co-immunoprecipitation, transfected cells
T5 construct: range 651-834
T5 sequence (looked up): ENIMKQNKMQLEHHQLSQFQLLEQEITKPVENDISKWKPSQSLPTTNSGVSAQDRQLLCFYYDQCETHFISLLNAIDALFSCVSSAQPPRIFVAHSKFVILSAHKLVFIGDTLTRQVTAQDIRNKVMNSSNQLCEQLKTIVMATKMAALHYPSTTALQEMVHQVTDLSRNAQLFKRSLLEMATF

[8] = molecular target: B1; assay: yeast two-hybrid screen, LexA-Smad1 bait
Description: as §1

## B1
[1]
  binding result: binds

B2: Clone S1+27 (SIP2) (other)
chain: KSSPLLIRMEESLNIVKYTAFLYNDQLIWSGLEQDDMRILYKYLTTSLFPRHIEPELAGRDSPIRAEMPGNLQHYGRFLTGPLNLNDPDAKCRFPKIFVNTDDTYEELHLIVYKAMSAAVCFMIDASVHPTLDFCRRLDSIVGPQLTVLASDICEQFNINKRMSGSEKEPQFKFIYFNHMNLAEKSTVHMRKTPSVSLTSVHPDLMKILGDINSDFTRVDEDEEIIVKAMSDYWVVGKKSDRRELYVILNQKNANLIEVNEVKKLCATQFNNIFFLD
notes: Novel clone from the human fetal brain library; also called Clone Smad1+ (S1+)27
[2]
  binding result: binds

B3: HEF1 M2/N (aa 651-759) (other, human, UniProt Q14511 651-759, looked up)
chain: ENIMKQNKMQLEHHQLSQFQLLEQEITKPVENDISKWKPSQSLPTTNSGVSAQDRQLLCFYYDQCETHFISLLNAIDALFSCVSSAQPPRIFVAHSKFVILSAHKLVFI
notes: range 651-759
Smad3N (aa 1-144)
  binding result: no binding

B4: HEF1 M2/C (aa 695-832) (other, human, UniProt Q14511 695-832, looked up)
chain: TTNSGVSAQDRQLLCFYYDQCETHFISLLNAIDALFSCVSSAQPPRIFVAHSKFVILSAHKLVFIGDTLTRQVTAQDIRNKVMNSSNQLCEQLKTIVMATKMAALHYPSTTALQEMVHQVTDLSRNAQLFKRSLLEMA
notes: range 695-832
Smad3N (aa 1-144)
  binding result: no binding

B5: Smad4 (other, UniProt Q13485 1-552, looked up)
chain: MDNMSITNTPTSNDACLSIVHSLMCHRQGGESETFAKRAIESLVKKLKEKKDELDSLITAITTNGAHPSKCVTIQRTLDGRLQVAGRKGFPHVIYARLWRWPDLHKNELKHVKYCQYAFDLKCDSVCVNPYHYERVVSPGIDLSGLTLQSNAPSSMMVKDEYVHDFEGQPSLSTEGHSIQTIQHPPSNRASTETYSTPALLAPSESNATSTANFPNIPVASTSQPASILGGSHSEGLLQIASGPQPGQQQNGFTGQPATYHHNSTTTWTGSRTAPYTPNLPHHQNGHLQHHPPMPPHPGHYWPVHNELAFQPPISNHPAPEYWCSIAYFEMDVQVGETFKVPSSCPIVTVDGYVDPSGGDRFCLGQLSNVHRTEAIERARLHIGKGVQLECKGEGDVWVRCLSDHAVFVQSYYLDREAGRAPGDAVHKIYPSAYIKVFDLRQCHRQMQQQAATAQAAAAAQAAAVAGNIPGPGSVGGIAPAISLSAAAGIGVDDLRRLCILRMSFVKGWGPDYPRQSIKETPCWIEIHLHRALQLLDEVLHTMPIADPQPLD
notes: also called DPC4
[3]
  binding result: no binding
[4]
  binding result: no binding
[5]
  binding result: binds

B6: Clone S1+28 (other)
chain: FAVDAKALPQNKPRPLTQEEIAQRRERARQRHAEKLAAAQGQAPLEPTQDGSAIETCPKGDEPRGDEQQVESMTPKPVLQEENNQESFIAFARVFSGVARRGKKIFVLGPKYSPLEFLRRVPLCFSAPPDGLPQVPHMAYCALENLYLLMGRELEYLEEVPPGNVLGIGGLQDFVLKSATLCSLPSCPPFIPLNFEATPIVRVAVEPKHPSEMPQLVKGMKLLNQADPCVQILIQETGEHVLVTAGEVHLQRCLDDLKERFAKIHISVSEPIIPFRETITKPPKVDMVNEEIGKQQKVAVIHQMKEDQSKIPEGIQVDSDGLITITTPNKLATLSVRAMPLPEEVTQILEENSDLIRSMEQLTSSLNEGENTHMIHQKTQEKIWEFKGKLEQHLTGRRWRNIVDQIWSFGPRKCGPNILVNKSEDFQNSVWTGPADKASKEASRYRDLGNSIVSGFQLATLSGPMCEEPLMGVCFVLEKWDLSKFEEQGASDLAKEDRRKMKPVLVEMKTKSYKMAALRPLRRGHHRKENLHSLTAMDLSQDS
notes: Novel clone from the human fetal brain library; also called human homologue of yeast translocation elongation factor
[2]
  binding result: binds

B7: Clone S1+12 (other)
chain: EFGTRRMMEGLDDGPDFLSEEDRGLKAINVDLQSDAALQVDISDALSERDKVKFTVHTKSSLPNFKQNEFSVVRQHEEFIWLHDSFVENEDYAGYIIPPAPPRPDFDASREKLQKLGEGEGSMTKEEFTKMKQELEAEYLAIFKKTVAMHEVFLCRVAAHPILRRDLNFHVFLEYNQDLSVRGKKKKKNSRSFGLLRQ
notes: also called sorting nexin-like protein
HsN3
  binding result: binds
[6]
  binding result: binds
[7]
  binding result: binds
[2]
  binding result: binds

B8: HEF1 M2/M (aa 695-759) (other, human, UniProt Q14511 695-759, looked up)
chain: TTNSGVSAQDRQLLCFYYDQCETHFISLLNAIDALFSCVSSAQPPRIFVAHSKFVILSAHKLVFI
notes: range 695-759
Smad3N (aa 1-144)
  binding result: no binding

## B9
HEF1 M2 (aa 651-834)
  binding result: no binding

B10: Smad1 (other, UniProt Q15797 1-465, looked up)
chain: MNVTSLFSFTSPAVKRLLGWKQGDEEEKWAEKAVDALVKKLKKKKGAMEELEKALSCPGQPSNCVTIPRSLDGRLQVSHRKGLPHVIYCRVWRWPDLQSHHELKPLECCEFPFGSKQKEVCINPYHYKRVESPVLPPVLVPRHSEYNPQHSLLAQFRNLGQNEPHMPLNATFPDSFQQPNSHPFPHSPNSSYPNSPGSSSSTYPHSPTSSDPGSPFQMPADTPPPAYLPPEDPMTQDGSQPMDTNMMAPPLPSEINRGDVQAVAYEEPKHWCSIVYYELNNRVGEAFHASSTSVLVDGFTDPSNNKNRFCLGLLSNVNRNSTIENTRRHIGKGVHLYYVGGEVYAECLSDSSIFVQSRNCNYHHGFHPTTVCKIPSGCSLKIFNNQEFAQLLAQSVNHGFETVYELTKMCTIRMSFVKGWGAEYHRQDVTSTPCWIEIHLHGPLQWLDKVLTQMGSPHNPISSVS
notes: also called Smad1 itself
[8]
  binding result: binds
